The results in this text go back to patent US20120095193A1 (published 2012).

The target of assay [1] is T1, human ADAMTS5 (human, UniProt Q9UNA0 262-622, limits assumed).
T1 construct: Octet and ELISA used 'recombinant human ADAMTS5'; also called recombinant human ADAMTS5; ADAMTS5 (R&D Systems 2198-AD)
T1 sequence: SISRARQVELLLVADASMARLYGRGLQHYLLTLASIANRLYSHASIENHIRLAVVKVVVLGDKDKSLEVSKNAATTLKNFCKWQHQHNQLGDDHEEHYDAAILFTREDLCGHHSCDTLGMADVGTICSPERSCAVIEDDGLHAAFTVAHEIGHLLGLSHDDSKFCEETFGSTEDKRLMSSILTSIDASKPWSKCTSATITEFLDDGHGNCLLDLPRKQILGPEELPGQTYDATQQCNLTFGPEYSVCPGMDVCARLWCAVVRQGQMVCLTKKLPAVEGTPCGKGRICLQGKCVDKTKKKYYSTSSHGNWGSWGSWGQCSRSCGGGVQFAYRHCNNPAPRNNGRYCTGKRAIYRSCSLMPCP
Briefly: ELISA on coated recombinant human ADAMTS5 (0.2 ug/ml), antibody in culture supernatant, anti human kappa peroxidase, OD 490 nm. The protocol: A binding ELISA was carried out to test the binding of the expressed antibodies in cell culture supernatant to recombinant ADAMTS5. ELISA plates were coated with recombinant human ADAMTS5 at 0.2 μg/ml and blocked with blocking solution (4% BSA in Tris buffered saline). Various dilutions of the tissue culture supernatants were added and the plate was incubated for 1 hour at room temperature before washing in TBST. Binding was detected by the addition of a peroxidase labelled anti human kappa light chain antibody (Sigma A7164) at a dilution of 1/1000 in blocking solution. The plate was incubated for 1 hour at room temp before washing in TBST. The plate was developed by addition of OPD substrate (Sigma P9187) and colour development stopped by addition of 2M H₂SO₄. Absorbance was measured at 490 nm with a plate reader and the mean absorbance plotted against concentration.
(In general: An ELISA detects its analyte on a solid surface through an enzyme-linked reagent.)

Assay [2] has as its target T1, human ADAMTS5. Briefly: Biacore T100, CHO-expressed mAb captured on Protein A, ADAMTS5 (R&D 2198-AD) 0.0625-64 nM, 1:1 fit. The method, then:
(§1) Protein A was immobilized on a CM5 biosensor chip by primary amine coupling. This surface was used to capture the Fc disabled anti-ADAMTS5 antibody, 12F4 H4L0 IgG1m(AA) (BPC1661), (CHO and HEK expressed material). Recombinant human ADAMTS5 (R&D Systems 2198-AD) was used as the analyte at 64 nM, 16 nM, 4 nM, 1 nM, 0.25 nM and 0.0625 nM, with a buffer injection (i.e. 0 nM) used to double reference the binding curves. Regeneration of the capture surface (i.e. removal of the captured antibody) was with 50 mM NaOH. The running buffer was HBS-EP and the run was carried out on the Biacore T100 at 25° C. The data was fitted to the 1:1 model inherent to the machines analysis software.
A general note: SPR reads the build-up and loss of mass on a sensor chip optically.

The target in assay [3] is T1, human ADAMTS5. The experiment in a line: Biacore T100, HEK-expressed mAb captured on Protein A, ADAMTS5 (R&D 2198-AD) 0.0625-64 nM, 1:1 fit. The method, then: as §1
The target in assay [4] is T1, human ADAMTS5. The experiment in a line: Biacore, mAb down, no avidity.
Assay [5] concerns the target T1, human ADAMTS5. Briefly: cell-based or functional assay.
For another assay, the target named is T2, Human ADAMTS4 (human, UniProt O75173 213-685, limits assumed).
T2 construct: also called aggrecanase-1
T2 sequence: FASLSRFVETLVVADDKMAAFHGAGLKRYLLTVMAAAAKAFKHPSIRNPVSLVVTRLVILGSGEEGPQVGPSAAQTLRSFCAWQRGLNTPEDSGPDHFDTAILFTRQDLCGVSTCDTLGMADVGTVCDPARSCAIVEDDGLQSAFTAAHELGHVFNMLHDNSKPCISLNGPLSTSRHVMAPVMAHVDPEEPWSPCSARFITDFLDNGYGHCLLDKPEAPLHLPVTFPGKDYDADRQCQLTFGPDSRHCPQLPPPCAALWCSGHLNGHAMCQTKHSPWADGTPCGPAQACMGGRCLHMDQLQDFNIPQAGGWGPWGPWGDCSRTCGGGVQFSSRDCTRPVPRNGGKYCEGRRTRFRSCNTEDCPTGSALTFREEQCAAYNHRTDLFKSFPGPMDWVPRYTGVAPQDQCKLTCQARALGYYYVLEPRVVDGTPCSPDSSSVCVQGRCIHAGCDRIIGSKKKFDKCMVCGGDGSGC
The experiment in a line: celTRF and Octet QK cross-reactivity. Background: BLI is a label-free optical method that tracks binding on a fibre tip over time.

Another assay concerns the target Human MMP9 (human, UniProt P14780 20-707, limits assumed). The experiment in a line: celTRF and Octet QK cross-reactivity.
For the next assay, the target named is T3, Human ADAMTS13 (human, UniProt Q76LX8 75-685, limits assumed).
T3 sequence (looked up): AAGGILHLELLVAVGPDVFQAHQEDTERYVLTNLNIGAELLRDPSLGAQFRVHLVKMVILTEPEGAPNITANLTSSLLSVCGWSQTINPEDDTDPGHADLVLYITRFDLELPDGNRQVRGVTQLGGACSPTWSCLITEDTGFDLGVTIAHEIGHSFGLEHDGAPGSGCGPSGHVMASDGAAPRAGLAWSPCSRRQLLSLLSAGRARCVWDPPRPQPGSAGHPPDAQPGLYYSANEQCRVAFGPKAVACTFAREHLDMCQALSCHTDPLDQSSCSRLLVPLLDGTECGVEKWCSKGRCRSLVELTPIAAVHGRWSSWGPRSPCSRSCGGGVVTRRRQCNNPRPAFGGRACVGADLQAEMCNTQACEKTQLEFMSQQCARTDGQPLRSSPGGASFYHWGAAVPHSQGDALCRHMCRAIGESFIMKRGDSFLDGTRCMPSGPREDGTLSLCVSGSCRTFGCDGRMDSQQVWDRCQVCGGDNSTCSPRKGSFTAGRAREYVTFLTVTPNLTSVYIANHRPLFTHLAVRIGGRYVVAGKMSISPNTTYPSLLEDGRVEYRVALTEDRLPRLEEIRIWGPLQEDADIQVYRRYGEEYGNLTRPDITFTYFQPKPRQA
The experiment in a line: celTRF and Octet QK cross-reactivity.

The target of a further assay is Human MMP13 (human, UniProt P45452 20-471, limits assumed). Briefly: celTRF and Octet QK cross-reactivity.
A further assay addresses T4, Human ADAMTS1 (human, UniProt Q9UHI8 253-967, limits assumed).
T4 sequence (looked up): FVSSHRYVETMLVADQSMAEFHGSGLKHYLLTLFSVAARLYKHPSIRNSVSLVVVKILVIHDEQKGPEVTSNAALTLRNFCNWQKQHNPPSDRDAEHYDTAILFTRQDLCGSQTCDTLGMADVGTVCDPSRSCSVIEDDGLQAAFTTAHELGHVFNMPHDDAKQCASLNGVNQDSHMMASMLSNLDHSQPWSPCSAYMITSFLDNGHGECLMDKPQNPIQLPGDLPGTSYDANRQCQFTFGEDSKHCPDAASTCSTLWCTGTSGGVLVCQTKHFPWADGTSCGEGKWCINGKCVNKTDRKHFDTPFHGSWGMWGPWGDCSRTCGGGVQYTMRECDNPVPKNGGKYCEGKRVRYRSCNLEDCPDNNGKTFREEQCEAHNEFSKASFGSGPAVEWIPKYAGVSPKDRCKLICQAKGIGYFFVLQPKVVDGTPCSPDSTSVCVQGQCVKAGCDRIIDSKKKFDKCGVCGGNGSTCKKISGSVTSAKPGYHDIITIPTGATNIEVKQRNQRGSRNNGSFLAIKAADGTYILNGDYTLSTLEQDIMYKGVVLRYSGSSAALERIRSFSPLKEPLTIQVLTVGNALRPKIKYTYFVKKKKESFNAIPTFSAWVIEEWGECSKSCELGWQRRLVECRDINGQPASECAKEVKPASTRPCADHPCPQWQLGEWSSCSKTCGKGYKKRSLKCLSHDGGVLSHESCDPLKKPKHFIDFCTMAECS
The experiment in a line: celTRF and Octet QK cross-reactivity.

For the next assay, the target named is Human MMP3 (human, UniProt P08254 18-477, limits assumed). The experiment in a line: celTRF and Octet QK cross-reactivity.
Human MMP3, sequence (P08254 18-477 limits assumed): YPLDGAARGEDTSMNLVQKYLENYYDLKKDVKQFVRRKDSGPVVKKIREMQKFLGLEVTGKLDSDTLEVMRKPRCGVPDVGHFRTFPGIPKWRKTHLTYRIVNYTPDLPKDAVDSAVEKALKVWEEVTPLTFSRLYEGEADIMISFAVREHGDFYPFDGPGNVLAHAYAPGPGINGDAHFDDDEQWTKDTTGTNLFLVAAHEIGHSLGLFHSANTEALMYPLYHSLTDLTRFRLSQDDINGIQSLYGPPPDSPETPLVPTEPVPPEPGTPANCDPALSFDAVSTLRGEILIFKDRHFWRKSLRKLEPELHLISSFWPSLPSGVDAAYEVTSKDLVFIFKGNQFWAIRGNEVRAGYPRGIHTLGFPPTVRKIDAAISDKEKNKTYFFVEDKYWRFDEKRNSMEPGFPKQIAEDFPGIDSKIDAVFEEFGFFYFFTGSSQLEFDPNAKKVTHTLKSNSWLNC
The next assay deals with T5, Human MMP1 (human, UniProt P03956 20-469, limits assumed).
T5 sequence (looked up): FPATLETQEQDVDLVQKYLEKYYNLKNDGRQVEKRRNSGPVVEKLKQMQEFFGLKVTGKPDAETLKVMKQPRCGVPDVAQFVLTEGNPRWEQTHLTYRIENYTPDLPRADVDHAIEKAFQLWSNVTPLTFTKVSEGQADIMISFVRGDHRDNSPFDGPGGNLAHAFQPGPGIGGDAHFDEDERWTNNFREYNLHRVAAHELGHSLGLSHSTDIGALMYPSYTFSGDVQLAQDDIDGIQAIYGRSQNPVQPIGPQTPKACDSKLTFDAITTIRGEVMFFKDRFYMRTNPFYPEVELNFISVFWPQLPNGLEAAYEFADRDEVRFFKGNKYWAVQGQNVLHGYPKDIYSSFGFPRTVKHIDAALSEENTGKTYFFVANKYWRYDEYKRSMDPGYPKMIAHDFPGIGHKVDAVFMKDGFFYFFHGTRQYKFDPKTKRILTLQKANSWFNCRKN
Briefly: celTRF and Octet QK cross-reactivity.

Assay [6] addresses T1, human ADAMTS5. The experiment in a line: Octet QK, purified mAb.
Assay [7] has as its target T1, human ADAMTS5. The experiment in a line: Octet QK, purified murine mAb.
Assay [8] has as its target T1, human ADAMTS5. The experiment in a line: Octet QK, antigen down, incl avidity.

Human MMP9, sequence (P14780 20-707 limits assumed): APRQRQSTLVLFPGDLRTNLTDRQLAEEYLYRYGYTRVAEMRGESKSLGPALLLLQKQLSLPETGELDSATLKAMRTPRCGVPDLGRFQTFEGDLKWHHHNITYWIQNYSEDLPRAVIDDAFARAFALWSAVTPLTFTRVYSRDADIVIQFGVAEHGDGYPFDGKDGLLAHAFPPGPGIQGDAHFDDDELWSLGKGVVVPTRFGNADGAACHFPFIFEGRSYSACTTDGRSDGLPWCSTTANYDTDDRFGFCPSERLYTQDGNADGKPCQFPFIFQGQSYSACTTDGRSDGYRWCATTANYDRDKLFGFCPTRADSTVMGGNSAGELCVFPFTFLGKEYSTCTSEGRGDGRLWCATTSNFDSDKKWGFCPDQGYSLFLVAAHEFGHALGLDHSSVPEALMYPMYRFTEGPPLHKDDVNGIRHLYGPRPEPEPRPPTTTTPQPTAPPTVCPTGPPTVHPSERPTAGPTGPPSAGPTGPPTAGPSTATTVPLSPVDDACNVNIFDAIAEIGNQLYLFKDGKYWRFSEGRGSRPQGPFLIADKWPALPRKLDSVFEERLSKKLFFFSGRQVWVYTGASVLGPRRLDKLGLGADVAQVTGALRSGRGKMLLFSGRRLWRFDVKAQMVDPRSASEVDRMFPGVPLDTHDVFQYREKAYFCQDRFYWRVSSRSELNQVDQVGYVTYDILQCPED

B1: BPC1655 (antibody, human IgG1, kappa, V domains shown)
VH: EVQLLESGGGLVQPGGSLRLSCAASGFTFSDAWMDWVRQAPGKGLEWVSEIRHKANDHAIFYDESVKGRFTISRDNSKNTLYLQMNSLRAEDTAVYYCAKPFAYWGQGTLVTVSS
VL: DIQMTQSPSSLSASVGDRVTITCKASQSVGTTIVWYQQKPGKAPKLLIYSASNRHTGVPSRFSGSGSGTDFTLTISSLQPEDFATYYCQQYTSYPFTFGQGTKLEIKR
notes: Humanized, human gamma 1 / kappa; also called 12F4 H0L0
Regarding B1, the binding result with human ADAMTS5 [1] was “no binding (tested: about 2.5 ug/ml)”.

B2: BPC1661 (antibody, human IgG1, kappa)
heavy: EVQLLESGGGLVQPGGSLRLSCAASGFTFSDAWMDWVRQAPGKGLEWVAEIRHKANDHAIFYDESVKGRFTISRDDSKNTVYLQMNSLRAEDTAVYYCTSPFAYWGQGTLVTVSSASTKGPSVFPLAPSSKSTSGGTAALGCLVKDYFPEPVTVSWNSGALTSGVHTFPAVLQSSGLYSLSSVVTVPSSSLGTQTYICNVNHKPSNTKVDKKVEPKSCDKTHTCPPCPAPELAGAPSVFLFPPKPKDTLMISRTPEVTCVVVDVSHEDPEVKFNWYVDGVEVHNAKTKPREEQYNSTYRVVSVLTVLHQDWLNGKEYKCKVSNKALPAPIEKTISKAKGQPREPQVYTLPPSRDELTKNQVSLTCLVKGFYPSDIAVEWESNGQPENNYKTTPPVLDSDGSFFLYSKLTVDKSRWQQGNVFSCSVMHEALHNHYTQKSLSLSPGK
light: DIQMTQSPSSLSASVGDRVTITCKASQSVGTTIVWYQQKPGKAPKLLIYSASNRHTGVPSRFSGSGSGTDFTLTISSLQPEDFATYYCQQYTSYPFTFGQGTKLEIKRTVAAPSVFIFPPSDEQLKSGTASVVCLLNNFYPREAKVQWKVDNALQSGNSQESVTEQDSKDSTYSLSSTLTLSKADYEKHKVYACEVTHQGLSSPVTKSFNRGEC
notes: HEK- and CHO-expressed material was tested; also called 12F4 H4L0 IgG1m(AA); Fc disabled anti-ADAMTS5 antibody
As to B2, the Kd with human ADAMTS5 [2] worked out at 0.07 nM; in the assay with human ADAMTS5 [3] it was 0.074 nM.

B3: 12F4.1H7 (antibody, IgG2, V domains shown)
VH: EVKLEESGGGLVQPGGSMKLSCTASGFTFSDAWMDWVRQSPEKGLEWVAEIRHKANDHAIFYDESVKGRFTISRDDSKNIVYLQMNSLRPEDTGIYYCTSPFAYWGQGTLVTVSA
VL: DIVMTQSQKFMSVTVGDRVSITCKASQSVGTTIVWYQQKPGQSPKLLIYSASNRHTGVPDRFTGSGSGTDFILTINNVQSEDLADYFCQQYTSYPFTFGSGTKLEIKR
notes: also called Murine 12F4.1H7
For B3, the Kd with human ADAMTS5 [4] was found to be 0.067 nM; with human ADAMTS5 [6] it was 0.0685 nM; in the assay with human ADAMTS5 [7] it was 0.436 nM; in the assay with human ADAMTS5 [8], 0.0356 nM. Also, in the assay with human ADAMTS5 [5], the “Aggrecan Substrate Cleavage Neutralization IC50” value was 0.06 nM. The binding result with Human ADAMTS4, with Human MMP9, in the assay with Human ADAMTS13, with Human MMP13, with Human ADAMTS1 and with Human MMP3 was “no binding” each time. In the assay with Human MMP1, the binding result is listed as “no binding”.

B4: 7B4.1E11 (antibody, IgG1, V domains shown)
VH: EVKLEESGGGLVQPGGSMKLSCAASGFTSSDAWMDWVRQSPEKGLEWVAEIRNKANNHARHYAESVKGRFTISRDDSKSSVYLQMNSLRAEDSGIYYCTRTYYYGSSYGYCDVWGTGTTVTVSS
VL: DIQMTQSPASLSASVGETVTITCRTSENIYSYLAWYQQKQGKSPQLLVYNAKTLAEGVPSRFSGSGSGTQFSLKINSLQPEDFGSYSCQHHYGTPWTFGGGTKLEIKR
notes: also called Murine 7B4.1E11
With B4, the Kd with human ADAMTS5 [4] is 0.483 nM; with human ADAMTS5 [6], 0.358 nM; in the assay with human ADAMTS5 [7], 0.899 nM; in the assay with human ADAMTS5 [8], 0.28 nM. Also, in the assay with human ADAMTS5 [5], the “Aggrecan Substrate Cleavage Neutralization IC50” value was 0.08 nM. Moreover, the binding result with Human ADAMTS4, in the assay with Human MMP9, with Human ADAMTS13, with Human MMP13, with Human ADAMTS1 and with Human MMP3 was “no binding” in each case. Besides, the binding result with Human MMP1 was “no binding”.
